Data on one molecule can be found in patent US11440969B2, “Use of human epididymis protein 4 (HE4) for assessing responsiveness of MUC 16-positive cancer treatment” (Genentech, Inc., priority 2016, dated 2022).

Assay [1] deals with MUC16 expressing mouse ovarian and pancreatic cancer xenograft models. Kind of assay: Mouse xenograft anti-tumor activity. It is filed as in vivo. The following applies: single agent.
For assay [2], the system named is recombinant human MUC16 extracellular domain. Kind of assay: Binding to recombinant human MUC16 extracellular domain.

B1: DMUC5754A: antibody-drug conjugate: humanized IgG1 anti-MUC16 monoclonal antibody and MMAE, linked through protease labile linker maleimidocaproyl-valine-citrulline-p-aminobenzyloxycarbonyl (conjugate, chains of the INN, looked up)
VH: EVQLVESGGGLVQPGGSLRLSCAASGYSITNDYAWNWVRQAPGKGLEWVGYISYSGYTTYNPSLKSRFTISRDTSKNTLYLQMNSLRAEDTAVYYCARWTSGLDYWGQGTLVTVSS
VL: DIQMTQSPSSLSASVGDRVTITCKASDLIHNWLAWYQQKPGKAPKLLIYGATSLETGVPSRFSGSGSGTDFTLTISSLQPEDFATYYCQQYWTTPFTFGQGTKVEIK
modifications: MMAE via mc-vc-PABC linker
As to B1, the anti-tumor activity result in assay [1] is “potent and selective single agent anti-tumor activity”. The binding affinity entry in assay [2] is recorded as “high affinity”.
